From article PMC6394990, “Detailed characterization of the solution kinetics and thermodynamics of biotin, biocytin and HABA binding to avidin and streptavidin” (PLoS ONE, 2019)
Where “and” joins values, the source holds several entries; their conditions need not be identical. Equal values may be shown once. Read-outs that look alike come from different tables or passages of the source. One block for each compound: values may come before it.

Legend:
[1] = target: T1, avidin (AV) (Gallus gallus, UniProt P02701); settings: cited from earlier work; for Off rate constants, rate / Off rate constants, ln k: AV; for Off rate constants, rate: in s^-1 (unit assumed); for Off rate constants, ln k: the values are: ln koff
T1 construct: purchased Calbiochem (La Jolla, CA)
T1 sequence (P02701 25-152): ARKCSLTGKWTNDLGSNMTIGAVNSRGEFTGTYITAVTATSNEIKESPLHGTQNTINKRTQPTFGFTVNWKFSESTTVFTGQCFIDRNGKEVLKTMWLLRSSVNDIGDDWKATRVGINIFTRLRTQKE

[2] = target: T1, avidin (AV); settings: cited from earlier work
[3] = target: T1, avidin (AV); experiment: Stopped-flow association kinetics of dye-labeled biotin probes binding to avidin (F(t), rF(t); Arrhenius plots/global fitting); parameters: ln(k) / dS+ / dG+ / Eon for BFl / b of the line y = m1x+b1: unit not given here; settings: forward step from Initial 0, probe not given
Protocol: (§1) These reactions were carried out in a buffered solution of 10 mM Tris-HCl, 100 mM KCl, 2.5 mM MgCl2 and 1 mM CaCl2 at pH 8 and only AV-BcO reactions included pH 9 and 10. The concentrations, after mixing, were of 20 nM of dye-labeled B7 probe and 260 nM, 520 nM or 1040 nM of AV; and 200 nM, 300 nM, 400 nM or 800 nM of SAV at temperatures of 10, 15, 20 and 25°C. The deglycosylation of AV (for comparative association reactions) was carried out using the provided standard protocol with endoglycosidase H [47], both with and without incubation of a denaturant solution (2% SDS and 1M 2-mercaptoethanol).
The reactions were collected with the SF instrument, described previously. The fluorescence signal was collected through a 520 nm interference filter (Oriel Corp., Stratford, CT) with a detector time constant and SF dead time of 1 μs and 1 ms, respectively. The excitation light was provided by the Coherent Ar^+ ion laser (described above) at 488 nm with […] of incident power on the reaction cuvette. The laser source was followed by the photo-elastic modulator described above with the axis oriented 45^o with respect to the electric vector of the incident light and with the half-wave modulation (50 kHz) set for 488 nm excitation. The demodulation circuitry following the photomultiplier provided a DC(t) and a rectified AC(t) which were converted to digital data by a high-speed digitizer (PCI-5122) from National Instruments (Austin, TX) with 14-bit resolution and 100 MHz bandwidth, through channels 0 and 1. The data acquisition was controlled by LabVIEW (Vr 8) software at a collection rate of 6120 data points/second and stored in spreadsheets. The AC(t) and DC(t) data were baseline corrected before obtaining the signal ratio (Eq 4) as a function of time (ρt).
(§2) The constant AGain is the instrumental amplitude gain and was evaluated by solving ρ(t) using the known steady state anisotropy (rss) of the complexes which is equivalent to the r(t) at t = ∞; and H, obtained from the equivalent grating factor (G) for the filters and photo multiplier tubes in the SF. For the probes used in here G was 0.82 and H = (1-G)/(1+G) = 0.099. Knowing Again and H, the AC(t) and DC(t) signals can be solved for r(t) and F(t) (Eqs 4 and 5) and the normalized fluorescence, F¯(t) , and corrected fluorescence anisotropy, rF¯(t), were obtained when F¯(0) and rF¯(0) were scaled to 1 at t = 0.
(§3) The F¯(t) (Eq 6) is equivalent to (I||) + 2 (I⊥) and proportional to quantum yield (QYi), molar absorptivity (εi) and to the formation or disappearance of the emitting species Xi(t); and rF¯(t) including the steady state anisotropies (rss) of each fluorescent species (Eq 7).
(§4) The possible reaction models were discriminated by the squared residuals of the observed and calculated association traces of both fluorescence and anisotropy fluorescence signals, F¯(t) and rF¯(t) , respectively.

[4] = target: T1, avidin (AV); experiment: Literature calorimetry reaction thermodynamics; format: binding; settings: line without author below the literature lines (average)
[5] = parameters: method as in PMID 10796986; settings: cited from earlier work
[6] = target: T1, avidin (AV); experiment: Literature kinetics, affinity and dissociation (backward) activation parameters; format: binding
[7] = target: T2, streptavidin (SAV) (Streptomyces avidinii, UniProt P22629); settings: cited from earlier work
T2 construct: purchased Sigma Aldrich (St. Louis, MO)

[8] = target: T2, streptavidin (SAV); experiment: Literature kinetics, affinity and dissociation (backward) activation parameters; format: binding
[9] = target: T2, streptavidin (SAV); experiment: Literature calorimetry reaction thermodynamics; format: binding
[10] = target: T2, streptavidin (SAV); experiment: Stopped-flow association kinetics of dye-labeled biotin probes binding to streptavidin (F(t), rF(t); Arrhenius plots/global fitting); settings: forward step from Initial 0, probe not given
Protocol: as §1, with “The concentrations, after mixing, were of 20 nM of dye-labeled B7 probe and 260 nM, 520 nM or 1040 nM of AV; and 200 nM, 300 nM, 400 nM or 800 nM of SAV at temperatures of 10, 15, 20 and 25°C.” left out
The reactions were collected with the SF instrument, described previously. […] The AC(t) and DC(t) data were baseline corrected before obtaining the signal ratio (Eq 4) as a function of time (ρt).
as §2, §3, §4

[11] = target: T2, streptavidin (SAV); settings: cited from earlier work; for Off rate constants, rate / Ea from off rate constants: SAV; for Off rate constants, rate: ligand not given, ref klumb paper; for ln(frac bound): rate off SAV
[12] = free biotin, 43 C, read from a literature plot
[13] = free biotin, 55 C, read from a literature plot
[14] = free biotin, 66 C, read from a literature plot
[15] = Enthalpy block, literature value, ref not given
[16] = Gibbs block, literature value, ref not given
[17] = entropy block, literature value, ref not given
[18] = ligand not given (biotin binding), first Green line, ref Green
[19] = ligand not given (biotin binding), ref Suurkuusk
[20] = ligand not given (biotin binding), second Green line, ref Green
[21] = Enthalpy block, from literature off rates, ref not given
[22] = ligand not given (biotin binding), ref Helppolainen
[23] = line without author below the literature lines
[24] = ligand not given (biotin binding), ref Green
[25] = ligand not given (biotin binding), ref Hyre
[26] = ligand not given (biotin binding), ref Klumb
[27] = ligand not given (biotin binding), ref Weber
[28] = line without author below the literature lines (average)

Compound: O=C(O)CCCC[C@@H]1SC[C@@H]2NC(=O)N[C@@H]21 [free biotin]
Off rate constants, rate [1, 12]: 5.623e-6 | Off rate constants, ln k [1, 12]: -12.1 | Off rate constants, rate [1, 13]: 6.31e-5 | Off rate constants, ln k [1, 13]: -9.67 | Off rate constants, rate [1, 14]: 0.0005623 | Off rate constants, ln k [1, 14]: -7.48

dG+ ([3]; Gibbs block): 4.7 | dS+ ([3]; entropy block): 32.8 | dH [4]: -21.9 kcal/mol | dSǂ from off rate constants, from transition state teory ([6]; AV): 31.8 cal/(mol·K) | TdS* ([6]; AV, at 25C): 1.28E+04 | dG* ([6]; AV, at 25C, from off rates of rhiziavidin-helponainen-2007): 2.47E+04 | dS (intercept less ln[RT/Noh), times 1.987) ([6]; AV, from off rate constants): 43 cal/(mol·K) | slope intersept, ln A ([6]; AV, from off rate constants of rhiziavidin-helponainen-2007): 45.4 | sum (Enthalpy: Eon for BFl and dH) ([6]; Enthalpy block): 37.6 | sum (Gibbs: dG+ and dG) ([6]; Gibbs block): 25.4 | sum (entropy: dS+ and dS) ([6]; entropy block): 41.7 | Ea from off rate constants ([6]; for AV, from off rates of rhiziavidin-helponainen-2007): 37.5 kcal/mol | Eaoff [6, 23]: 35.6 | dH + Ea [6, 23]: 36.5
Compound: AV: avidin, homo-tetrameric biotin-binding protein, CAS 1405-69-2
dH [2, 15]: -23.2 | dG [2, 16]: -20.7 | dS [2, 17]: -8.9 | TdS [2, 18]: 0 kcal/mol | dG [2, 18]: -20.5 kcal/mol | dS [2, 18]: 0 | TdS [2, 19]: -8.9 kcal/mol | dCp [2, 19]: -237 | dH [2, 19]: -22.5 kcal/mol | dH ([2]; ligand not given (biotin binding), ref swamy): -23.4 kcal/mol | TdS [2, 20]: -2.65 kcal/mol | dG [2, 20]: -20.75 kcal/mol | dH [2, 20]: -20.3 kcal/mol | dS [2, 20]: -8.9 | thermal stability with bound B7 [5]: 117 °C and 112 °C | thermal stability without bound B7 [5]: 84 °C | Off rate constants, ln k ([1]; 43 C, ligand not given, ref rhiziavidin paper): -14.3 | Off rate constants, ln k ([1]; 55 C, ligand not given, ref rhiziavidin paper): -12.2 | Off rate constants, ln k ([1]; 66 C, ligand not given, ref rhiziavidin paper): -10 | Off rate constants, ln k ([1]; 68 C, ligand not given, ref rhiziavidin paper): -10.1 | Eoff (ave) [1, 21]: 37.6 | Eaoff [1, 22]: 35.6

Compound: SAV: streptavidin, homo-tetrameric biotin-binding protein, CAS 9013-20-1
dH [7, 15]: -24.8 | dG [7, 16]: -18.2 | dS [7, 17]: -21 | TdS [7, 24]: -6.4 | dG [7, 24]: -18.1 kcal/mol | dH [7, 22]: -26.7 kcal/mol | TdS [7, 25]: -13.7 | dCp [7, 25]: -345 | dG [7, 25]: -18.3 kcal/mol | dH [7, 25]: -24.5 kcal/mol | dS [7, 25]: -45.9 | dH [7, 26]: -24.9 kcal/mol | TdS ([7]; ligand not given (biotin binding), ref Stayton): -21.5 | dH [7, 27]: -32 kcal/mol | dH ([7]; ligand not printed in the sheet (biotin binding), ref Green): -23 kcal/mol | sum (Enthalpy: Eon for BFl and dH) ([8]; Enthalpy block): 30.8 | sum (Gibbs: dG+ and dG) ([8]; Gibbs block): 22.2 | dSǂ from off rate constants, from transition state teory ([8]; SAV): 18.8 | TdS* ([8]; SAV, at 25C): 8.94E+03 | dG* ([8]; SAV, at 25C, line names rhiziavidin-helponainen-2007): 2.14E+04 | slope intersept, ln A ([8]; SAV, from literature off rate constants): 38.85 | dS (intercept less ln[RT/Noh), times 1.987) ([8]; SAV, from off rate constants): 30.0 | sum (entropy: dS+ and dS) ([8]; entropy block): 27.7 | dH + Ea [8, 23]: 31.8 | dS* [8, 23]: 19.5 cal/mol | Eaoff [8, 28]: 29.6 | TdS [9, 23]: -46.0 | dH [9, 28]: -24.8 kcal/mol | dG+ ([10]; Gibbs block): 4 | dS+ ([10]; entropy block): 6.7 | Eoff (ave) [11, 21]: 29.4 | Off rate constants, rate ([11]; 20 C): 1.862e-6 | Off rate constants, rate ([11]; 30 C): 9.12e-6 | Off rate constants, rate ([11]; 39 C): 4.467e-5 | Ea from off rate constants ([11]; ref hyre): 30.4 kcal/mol and 30.4 ± 0.2hyre kcal/mol | Ea from off rate constants ([11]; ref klumb): 29.4 kcal/mol and 29.4 ± 0.4klumb kcal/mol | Ea from off rate constants ([11]; ref rhiziavidin-helponainen-2007): 29.0 ± 1.0 kcal/mol | Eaoff [11, 22]: 29 | TdS* [11, 22]: 7.6 kcal/mol | dH* [11, 22]: 32 kcal/mol | dS* [11, 22]: 25.7 cal/mol | Eaoff [11, 25]: 29.4 | TdS* [11, 25]: 5.6 kcal/mol | dH* [11, 25]: 30.4 kcal/mol | dS* [11, 25]: 5.8 cal/mol | Eaoff [11, 26]: 30.4 | dG* [11, 26]: 24.6 | dH* [11, 27]: 40 kcal/mol | ln(frac bound) ([11]; time 13 hr, ref klumb): -0.19 | ln(frac bound) ([11]; time 22 hr, ref klumb): -0.36 | ln(frac bound) ([11]; time 36 hr, ref klumb): -0.47 | ln(frac bound) ([11]; time 47 hr, ref klumb): -0.62 | ln(frac bound) ([11]; time 63 hr, ref klumb): -0.78 | thermal stability with bound B7 [5]: 112 °C and 117 °C | thermal stability without bound B7 [5]: 75 °C
